The target in assay [1] is complement C1q (human) (UniProt P02745). The assay can be described thus: MST; fluorescently labelled C1q (RED-NHS) 40 nM; TsCRT, TsCRT^Δ, mutants or P^TsCRT gradient-diluted; 50 mM Hepes, 150 mM NaCl, 2 mM CaCl2, 0.05% Tween 20, pH 7.4; Monolith NT.115, LED power 20%, MST power 50%.
Assay [2] shares this target. The assay can be described thus: MST; competitive binding: IgG with fluorescently labelled C1q (40 nM) in the presence of 20 µM TsCRT^Δ, a mutant or P^TsCRT; 50 mM Hepes, 150 mM NaCl, 2 mM CaCl2, 0.05% Tween 20, pH 7.4; LED power 60%, MST power 50%.
Assay [3] shares this target. The experiment in a line: MST; IgG incubated with fluorescently labelled C1q (40 nM) alone, no competitor; 50 mM Hepes, 150 mM NaCl, 2 mM CaCl2, 0.05% Tween 20, pH 7.4; LED power 60%, MST power 50%.
Assay [4] shares this target. The experiment in a line: MST; with 20 uM TsCRT^Δ H46A/K47A/D49A competitor.
For assay [5] the target is unchanged. The experiment in a line: MST; with 20 uM TsCRT^Δ P143A/E144A competitor.
For assay [6] the target is unchanged. The assay can be described thus: MST; with 20 uM TsCRT^Δ I140A/G142A competitor.

Chain of complement C1q (human) (P02745 23-245, chain 1 of 3): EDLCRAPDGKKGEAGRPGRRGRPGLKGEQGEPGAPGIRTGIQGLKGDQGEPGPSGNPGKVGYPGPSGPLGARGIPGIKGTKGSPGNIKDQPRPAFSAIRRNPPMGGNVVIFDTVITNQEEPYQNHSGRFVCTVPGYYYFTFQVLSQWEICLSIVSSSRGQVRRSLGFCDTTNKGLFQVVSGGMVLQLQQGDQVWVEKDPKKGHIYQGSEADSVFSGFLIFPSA
Chain of complement C1q (human) (P02746 28-253, chain 2 of 3, further chain): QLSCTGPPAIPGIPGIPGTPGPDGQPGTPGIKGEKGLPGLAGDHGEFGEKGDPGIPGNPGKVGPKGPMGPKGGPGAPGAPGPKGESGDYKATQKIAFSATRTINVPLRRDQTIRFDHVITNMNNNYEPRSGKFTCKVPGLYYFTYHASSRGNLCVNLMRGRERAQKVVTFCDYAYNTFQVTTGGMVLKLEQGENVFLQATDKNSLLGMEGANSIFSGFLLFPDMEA
Chain of complement C1q (human) (P02747 29-245, chain 3 of 3, further chain): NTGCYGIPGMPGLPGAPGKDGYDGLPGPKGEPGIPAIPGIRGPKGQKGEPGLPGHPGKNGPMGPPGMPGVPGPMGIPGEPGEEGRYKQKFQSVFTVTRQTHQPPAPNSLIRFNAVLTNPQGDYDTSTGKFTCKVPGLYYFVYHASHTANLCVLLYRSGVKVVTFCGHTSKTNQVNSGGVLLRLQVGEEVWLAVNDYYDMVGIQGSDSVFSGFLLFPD

What is called Kd is the concentration at which binding is half-saturated. Read a low Kd as tighter binding. With “TsCRT^Δ mutant H46A/K47A/D49A (domain or fragment)”, in the assay with complement C1q (human) [1], the Kd turned out to be 54.5 µM.
In the case of human IgG (antibody), in the assay with complement C1q (human) [2], the KD of C1q-IgG with P^TsCRT (20 µM) is 172 µM, the KD of C1q-IgG with TsCRT^Δ (20 µM) came to 409 µM and the KD of C1q-IgG with the mutant D129A amounted to 0.32 µM. Further, the equilibrium dissociation constant (Kd) in the assay with complement C1q (human) [3] was 0.14 µM.
“TsCRT^Δ mutant I140A/G142A (domain or fragment)” yielded a dissociation constant (Kd) with complement C1q (human) [1] of 54.4 µM.
On the same count and under the same terms, the result for “truncated Trichinella spiralis calreticulin TsCRT^Δ (22-209, GSG linker, 305-364) (domain or fragment)” reads 9.03 µM.
The same measure, in the same setting: the same measure for “TsCRT^Δ mutant D129A (domain or fragment)”: 124 µM; for “Trichinella spiralis calreticulin, full-length (natural protein)”: 258 µM.
On to human IgG, for which the Kd with complement C1q (human) [4] was found to be 3.94 µM; in the assay with complement C1q (human) [5], 4.18 µM; in the assay with complement C1q (human) [6], 5.51 µM.
On to “TsCRT^Δ mutant P143A/E144A (domain or fragment)”, for which the Kd with complement C1q (human) [1] was 66.8 µM. This lies in the double-digit micromolar range.

Values taken from paper PMC11059001.
